B1: CPEB3 Ribozyme (parent)
chain: GGGGGCCACAGCAGAAGCGUUCACGUCGCGGCCCCUGUCAGAUUCUGGUGAAUCUGCGAAUUCUGCUGU

Variants of: B1
Test: self-cleavage, relative activity (ratio to wild type); higher = more cleavage; co-transcriptional

| Variant | self-cleavage |
| --- | --- |
| GGGGGCCACAGAAGAAGCGUUCACGUCGCGGCCCCUGUCAGCUUCUGGUGAAUCUGCGAAUUCUGCUGU [C12A A42C] | 0.413 |
| GGGGGCCACAGAAGAAGCGUUCACGUCGCGGCCCCUGUCAGGUUCUGGUGAAUCUGCGAAUUCUGCUGU [C12A A42G] | 0.41 |
| GGGGGCCACAGAAGAAGCGUUCACGUCGCGGGCCCUGUCAGAUUCUGGUGAAUCUGCGAAUUCUGCUGU [C12A C32G] | 0.118 |
| GGGGGCCACAGAAGAAGCGUUCACGUCGCGGACCCUGUCAGAUUCUGGUGAAUCUGCGAAUUCUGCUGU [C12A C32A] | 0.402 |
| GGGGGCCACAGAAGAAGCGUUCACGUCGCGGCCCCUGUCAGAUUCUGGUGACUCUGCGAAUUCUGCUGU [C12A A52C] | 0.571 |
| GGGGGCCACAGAAGAAGCGUUCACGUCGCGGCCCCUGUCAGAUUCUGGUGAUUCUGCGAAUUCUGCUGU [C12A A52U] | 0.603 |
| GGGGGCCACAGAAGAAGCGUUCACGUCGCGGCCCCUGUCAGAUUCUGGUGAGUCUGCGAAUUCUGCUGU [C12A A52G] | 0.788 |
| GGGGGCCACAUCAGAAGCGUUCACGUCGCGGCCCCUGUCAGAAUCUGGUGAAUCUGCGAAUUCUGCUGU [G11U U43A] | 0.392 |
| GGGGGCCACAUCAGAAGCGUUCACGUCGCGGCCCCUGUCAGAGUCUGGUGAAUCUGCGAAUUCUGCUGU [G11U U43G] | 0.302 |
| GGGGGCCACAGAAGAAGCGUUCACGUCGCGGCCCCUGUCAGAUUCUGGUGGAUCUGCGAAUUCUGCUGU [C12A A51G] | 0.805 |
| GGGGGCCACAGAAGAAGCGUUCACGUUGCGGCCCCUGUCAGAUUCUGGUGAAUCUGCGAAUUCUGCUGU [C12A C27U] | 0.117 |
| GGGGGCCACAGAAGAAGCGUUCACGUAGCGGCCCCUGUCAGAUUCUGGUGAAUCUGCGAAUUCUGCUGU [C12A C27A] | 0.145 |
| GGGGGCCACAUCAGAAGCGUUCACGUCGCGGCCCCCGUCAGAUUCUGGUGAAUCUGCGAAUUCUGCUGU [G11U U36C] | 0.59 |
| GGGGGCCACAUCAGAAGCGUUCACGUCGCGGCCCCGGUCAGAUUCUGGUGAAUCUGCGAAUUCUGCUGU [G11U U36G] | 0.167 |
| GGGGGCCACAUCAGAAGCGUUCACGACGCGGCCCCUGUCAGAUUCUGGUGAAUCUGCGAAUUCUGCUGU [G11U U26A] | 0.552 |
| GGGGGCCACAUCAGAAGCGUUCACGCCGCGGCCCCUGUCAGAUUCUGGUGAAUCUGCGAAUUCUGCUGU [G11U U26C] | 0.712 |
| GGGGGCCACAGAAGAAGCGUUCGCGUCGCGGCCCCUGUCAGAUUCUGGUGAAUCUGCGAAUUCUGCUGU [C12A A23G] | 0.42 |
| GGGGGCCACAGAAGAAGCGUUCUCGUCGCGGCCCCUGUCAGAUUCUGGUGAAUCUGCGAAUUCUGCUGU [C12A A23U] | 0.742 |
| GGGGGCCACAUCAGAAGCGUACACGUCGCGGCCCCUGUCAGAUUCUGGUGAAUCUGCGAAUUCUGCUGU [G11U U21A] | 0.895 |
| GGGGGCCACAUCAGAAGCGUUCACGUCGCGGCCCCUGUCAGAUUCUGGUGAAUCUGCGAAUUCUCCUGU [G11U G65C] | 0.574 |

| Variant | self-cleavage |
| --- | --- |
| GGGGGCCACAUCAGAAGCGUUCACGUCGCGGCCCCUGUCAGAUUCUGGUGAAUCUGCGAAUUCUUCUGU [G11U G65U] | 0.68 |
| GGGGGCCACAGAAGAAGCGUUCAGGUCGCGGCCCCUGUCAGAUUCUGGUGAAUCUGCGAAUUCUGCUGU [C12A C24G] | 0.138 |
| GGGGGCCACAGAAGAAGCGUUCAAGUCGCGGCCCCUGUCAGAUUCUGGUGAAUCUGCGAAUUCUGCUGU [C12A C24A] | 0.236 |
| GGGGGCCACAGAAGAAGCGUUCAUGUCGCGGCCCCUGUCAGAUUCUGGUGAAUCUGCGAAUUCUGCUGU [C12A C24U] | 0.302 |
| GGGGGCCACAUCAGAAGCGUUCACGUCGCGGCCCCUGUCAGAUUCUGGUGAAUCUGCGAAUUCUGCUGG [G11U U69G] | 0.968 |
| GGGGGCCACAUCAGAAGCGUUCACGUCGCGGCCCCUGUCAGAUUCUGGUGAAUCUGCGAAUUCUGCUGA [G11U U69A] | 0.958 |
| GGGGGCCACAUCAGAAGCGUUCACGUCGCGGCCCCUGUCAGAUUCUGGUGAAUCUGCGAAGUCUGCUGU [G11U U61G] | 0.348 |
| GGGGGCCACAUCAGAAGCGUUCACGUCGCGGCCCCUGUCAGAUUCUGGUGAAUCUGCGAAAUCUGCUGU [G11U U61A] | 0.412 |
| GGGGGCCACAGAGGAAGCGUUCACGUCGCGGCCCCUGUCAGAUUCUGGUGAAUCUGCGAAUUCUGCUGU [C12A A13G] | 0.735 |
| GGGGGCCACAGACGAAGCGUUCACGUCGCGGCCCCUGUCAGAUUCUGGUGAAUCUGCGAAUUCUGCUGU [C12A A13C] | 0.199 |
| GGGGGCCACAGAAGAAGGGUUCACGUCGCGGCCCCUGUCAGAUUCUGGUGAAUCUGCGAAUUCUGCUGU [C12A C18G] | 0.113 |
| GGGGGCCACAGAAGAAGUGUUCACGUCGCGGCCCCUGUCAGAUUCUGGUGAAUCUGCGAAUUCUGCUGU [C12A C18U] | 0.143 |
| GGGGGCCACAGAAGAAGCGUUAACGUCGCGGCCCCUGUCAGAUUCUGGUGAAUCUGCGAAUUCUGCUGU [C12A C22A] | 0.144 |
| GGGGGCCACAGAAGAAGCGUUUACGUCGCGGCCCCUGUCAGAUUCUGGUGAAUCUGCGAAUUCUGCUGU [C12A C22U] | 0.111 |
| GGGGGCCACAGAAGAAGCGUUGACGUCGCGGCCCCUGUCAGAUUCUGGUGAAUCUGCGAAUUCUGCUGU [C12A C22G] | 0.129 |
| GGGGGCCACAUCAGAAGCGUUCACGUCGCGGCCCCUGUCAGAUUCUGGUGAAUCGGCGAAUUCUGCUGU [G11U U55G] | 0.225 |
| GGGGGCCACAUCAGAAGCGUUCACGUCGCGGCCCCUGUCAGAUUCUGGUGAAUCUGCGAAUUCAGCUGU [G11U U64A] | 0.467 |
| GGGGGCCACAUCAGAAGCGUUCACGUCGCGGCCCCUGUCAGAUUCUGGUGAAUCUGCGAAUUCUGCUUU [G11U G68U] | 0.856 |
| GGGGGCCACAUCAGAAGCGUUCACGUCGCGGCCCCUGUCAGAUUCUGGUGAAUCUGCGAAUUCUGCUCU [G11U G68C] | 0.943 |

From the RNAGym collection of RNA variant scans (doi:10.7554/elife.80360)
